Target: T1, BLyS (B-lymphocyte stimulator) (UniProt Q9Y275 134-285)
T1 construct: Endogenous BLyS in the serum of human SLE patients; The complex with atacicept was detected by sandwich ELISA
Assay: ELISA of atacicept/BLyS complex in serum of dosed SLE patients (subcutaneous, Study 1)
Experimental: Pharmacokinetics were assessed by measuring serum levels of free atacicept (Table 2a), atacicept/BLyS complex (Table 3a), and composite atacicept (defined as free atacicept+atacicept-BLyS complex, Table 4a). Serum levels of each of these were quantified using an enzyme-linked immunosorbant assay. Serum was incubated with a biotin-conjugated mouse mAb specific for atacicept (free or total atacicept detection) (ZymoGenetics, Inc., Seattle, Wash.) or biotin-conjugated goat polyclonal antibodies specific for either BLyS or atacicept (atacicept/BLyS complex detection) (R & D Systems, Minneapolis, Minn.), immobilized on a streptavidin-coated microplate (Adaltis, Montreal, Quebec). […] In all three assays, atacicept serum levels were detected and quantified using standard […] methods, i.e., after washing tetramethylbenzidine (TMB) was added as HRP substrate (Sigma-Aldrich, St. Louis, Mo.). The reaction was halted after 20 minutes using 0.5 M sulfuric acid and the absorbance recorded at 450 nm. […] All samples were measured in triplicate. […] The lower limits of quantification (LLOQ) of the assays were 15.6 ng/mL for free atacicept, 5 U/mL for atacicept-BLyS complex (1 U/mL corresponding to 1.82 ng/mL atacicept-0.44 ng/mL BLyS in a 3:1 molar ratio), and 25 ng/mL for the composite analytes. […]

binding result: binds
B1: atacicept (Fc fusion)
chain: AMRSCPEEQYWDPLLGTCMSCKTICNHQSQRTCAAFCRSLSCRKEQGKFYDHLLRDCISCASICGQHPKQCAYFCENKLRSEPKSSDKTHTCPPCPAPEAEGAPSVFLFPPKPKDTLMISRTPEVTCVVVDVSHEDPEVKFNWYVDGVEVHNAKTKPREEQYNSTYRVVSVLTVLHQDWLNGKEYKCKVSNKALPSSIEKTISKAKGQPREPQVYTLPPSRDELTKNQVSLTCLVKGFYPSDIAVEWESNGQPENNYKTTPPVLDSDGSFFLYSKLTVDKSRWQQGNVFSCSVMHEALHNHYTQKSLSLSPGK
modifications: Fc-linked homodimer in the drug; one chain is given.
notes: also called TACI-Ig; TACI-Fc5

Source: patent US20090186040A1 (published 2009)
